pKd: −log10 of the molar value.
Assays:
[1] = target: T. thermophilus RNAP core enzyme (T. thermophilus) (UniProt Q5SHR6); test: SPR
[2] = target: T. thermophilus RNAP σ^A holoenzyme (T. thermophilus HB8) (UniProt Q5SHR6); test: SPR

Work on “Thermus thermophilus bacteriophage P23–45 gp76 (natural protein)” yielded a pKd [1] of 5.08 and a pKd [2] of 6.92.
